From patent US20190150137A1 come the findings set out here.

For assay [1], the target named is GST-Fg γ^1-17 (GST fusion protein containing the native human Fg γ 395-411 sequence) (human). In words: ELISA-type assay, ligand coated, apparent Kd. A general note: An ELISA detects its analyte on a solid surface through an enzyme-linked reagent.
The target of assay [2] is GST-Fg g^1-17D16A (GST fusion of the Fg γ 395-411 sequence with D16A) (human). Nature of the assay: solid-phase binding assay, wells coated with GST-γ1-17 D16A, anti-His detection, A405.
Assay [3] deals with ClfAD327C/K541C (ClfA(229-545)D327C/K541C, disulfide-stabilized closed conformation) (Staphylococcus aureus strain Newman) (UniProt Q2G015). Nature of the assay: ITC, peptide titrated into ClfAD327C/K541C; panel assigned by the legend paragraph 25 (bovine Fg γ peptide has the lower affinity). For orientation: In ITC the heat of successive injections is recorded.

pKd: −log10 of the molar value.

Usually pKd stands for the negative decadic logarithm of the Kd, by convention in mol/L. Usually EC50 (read off the curve) stands for the concentration that produces a half-maximal response. Low values mean greater potency, high ones weaker potency. Regarding “ClfA229-545 (recombinant His-tagged N2N3 segment of Staphylococcus aureus clumping factor A) (from UniProt Q2G015 229-545)”, the pKd in assay [1] was 6.65. This substance also displayed a 50% effective concentration (EC50 (read off the curve)) in assay [2] of 200 nM.

Regarding “ClfAD327C/K541C (ClfA(229-545)D327C/K541C, disulfide-stabilized closed conformation) (from UniProt Q2G015 229-545)”, the pKd in assay [1] was 7.70.

In the case of “bovine Fg γ peptide (peptide representing the bovine Fg γ chain sequence) (from UniProt P12799 420-436)”, the negative logarithm of the Kd (pKd) in assay [3] was 4.68.
